{"source": "patent US20130243722A1", "assay_in_all_cases": "cell-based or functional assay", "key": {"[1]": {"target": "murine IL-12 receptor on mouse CD14- PBMC (mouse) (UniProt P97378)", "sequence (P97378 24-874)": "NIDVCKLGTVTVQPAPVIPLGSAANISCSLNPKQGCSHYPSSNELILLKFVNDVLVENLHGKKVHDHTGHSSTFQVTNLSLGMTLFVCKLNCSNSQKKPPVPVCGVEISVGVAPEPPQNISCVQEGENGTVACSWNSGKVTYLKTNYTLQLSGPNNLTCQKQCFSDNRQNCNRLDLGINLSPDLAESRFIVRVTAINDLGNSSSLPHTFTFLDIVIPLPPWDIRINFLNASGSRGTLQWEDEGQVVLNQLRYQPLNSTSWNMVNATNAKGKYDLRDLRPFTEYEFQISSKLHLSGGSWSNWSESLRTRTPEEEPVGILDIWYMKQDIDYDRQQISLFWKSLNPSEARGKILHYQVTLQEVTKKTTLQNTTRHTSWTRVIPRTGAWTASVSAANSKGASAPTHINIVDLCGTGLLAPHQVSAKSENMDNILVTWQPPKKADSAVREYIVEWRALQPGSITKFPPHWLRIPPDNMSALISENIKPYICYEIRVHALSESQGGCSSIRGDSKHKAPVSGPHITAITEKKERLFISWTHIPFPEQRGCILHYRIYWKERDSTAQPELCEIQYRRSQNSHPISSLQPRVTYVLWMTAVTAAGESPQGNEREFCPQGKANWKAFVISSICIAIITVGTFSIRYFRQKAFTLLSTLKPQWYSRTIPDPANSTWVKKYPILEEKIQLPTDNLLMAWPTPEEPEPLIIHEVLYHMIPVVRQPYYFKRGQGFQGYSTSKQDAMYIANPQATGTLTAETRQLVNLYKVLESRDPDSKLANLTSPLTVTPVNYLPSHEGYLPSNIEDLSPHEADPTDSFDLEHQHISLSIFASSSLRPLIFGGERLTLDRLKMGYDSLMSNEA"}, "[2]": {"target": "rat IL-12 receptor on rat PBMC (rat)"}, "[3]": {"target": "rhesus monkey IL-12 receptor on rhesus monkey CD14- PBMC (rhesus monkey) (UniProt F6X0C8)", "sequence (F6X0C8 entry or part of it)": "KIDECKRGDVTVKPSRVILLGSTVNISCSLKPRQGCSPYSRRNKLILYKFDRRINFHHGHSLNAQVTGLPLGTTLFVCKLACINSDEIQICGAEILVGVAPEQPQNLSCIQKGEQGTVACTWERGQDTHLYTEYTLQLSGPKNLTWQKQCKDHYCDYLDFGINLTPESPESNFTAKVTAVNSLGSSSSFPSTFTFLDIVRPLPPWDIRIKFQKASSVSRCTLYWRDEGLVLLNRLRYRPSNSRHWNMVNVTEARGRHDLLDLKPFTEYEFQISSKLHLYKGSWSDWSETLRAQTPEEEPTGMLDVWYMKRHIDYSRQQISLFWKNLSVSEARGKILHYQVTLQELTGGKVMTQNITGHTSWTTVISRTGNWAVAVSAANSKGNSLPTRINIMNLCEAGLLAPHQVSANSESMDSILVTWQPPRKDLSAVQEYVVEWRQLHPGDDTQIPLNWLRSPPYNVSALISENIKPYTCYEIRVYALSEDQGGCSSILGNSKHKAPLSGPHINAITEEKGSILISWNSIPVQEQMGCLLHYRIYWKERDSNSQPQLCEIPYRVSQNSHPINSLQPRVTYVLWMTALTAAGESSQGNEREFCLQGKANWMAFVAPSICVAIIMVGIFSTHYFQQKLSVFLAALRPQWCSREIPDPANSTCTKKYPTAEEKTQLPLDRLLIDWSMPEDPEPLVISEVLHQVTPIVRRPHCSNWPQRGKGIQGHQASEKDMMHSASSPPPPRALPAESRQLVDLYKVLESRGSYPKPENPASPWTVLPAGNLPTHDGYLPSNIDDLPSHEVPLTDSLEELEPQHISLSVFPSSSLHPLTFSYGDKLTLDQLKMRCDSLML"}}}
{"substance": "recombinant murine IL-12 (from UniProt P43431 23-215; P43432 24-335) (ligand)", "values": [{"measurement": "EC50 for stimulating IFN-γ secretion from CD14- PBMC (ELISA, 16 hours)", "setting": "[1]", "result": 0.35, "unit": "pM"}]}
{"substance": "recombinant human IL-12 (from UniProt P29459 23-219; P29460 23-328) (ligand)", "values": [{"measurement": "EC50 for stimulating IFN-γ secretion from PBMC", "setting": "[1]", "result": "> 1000", "unit": "pM"}, {"measurement": "EC50 for stimulating IFN-γ secretion from PBMC", "setting": "[2]", "result": "> 1000", "unit": "pM"}, {"measurement": "EC50 for stimulating IFN-γ secretion from CD14- PBMC (ELISA, 16 hours)", "setting": "[3]", "result": 1.05, "unit": "pM"}]}
